From patent US20140037650A1 (UNIVERSITY OF CHICAGO, published 2014)
Changes are numbered by the printed parent chain.

T1: GST-tagged IsdA (Staphylococcus aureus, UniProt A5IS16 47-316)
T1 sequence: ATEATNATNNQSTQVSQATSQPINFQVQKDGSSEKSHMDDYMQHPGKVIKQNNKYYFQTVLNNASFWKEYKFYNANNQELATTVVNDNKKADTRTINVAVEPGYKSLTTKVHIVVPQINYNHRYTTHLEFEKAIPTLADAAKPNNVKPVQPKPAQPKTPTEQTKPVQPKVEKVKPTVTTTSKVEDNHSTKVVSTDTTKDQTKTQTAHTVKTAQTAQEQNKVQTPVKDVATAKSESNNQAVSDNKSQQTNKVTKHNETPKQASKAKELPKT

B1: MAb 3D8 (antibody, V domains shown)
VH: QVQLQQSGAELVRPGTSVKVSCKASGNAFTNYLIEWIKQRPGQGLEWIGVINPGSGITNYNEKFKGKATLTADKSSNTAYMQLSSLSSDDSAVYFCSGSANWFAYWGQGTLVTVSA
VL: DVVMTQTPLSLPVSLGDQASISCRSSQSLVYSNGNTYLHWFLQKPGQSPKLLIYKVSNRFSGVPDRFSGSGSGTDFTLKISRVEAEDLGVYFCSQTTHIPLTFGAGTKLELK
B2: MAb 7E9 (antibody, V domains shown)
VH: DVQLQESGPGLVKPSQSLSLTCSVTGHSITSGYYWNWIRQFPGNKLEWMGYISFDGRNKYNPSLKNRISITRDTSKNQFFLKLNSVTSEDTATYFCTRLSYSTLDYWGQGTSVTVSS
VL: B1 VL with V30L, F41Y, G69A, T96S, I99V
B3: MAb 4H7 (antibody, V domains shown)
VH: EVQLLQSGPELVKPGTSVKMSCRTSGYTFTEYTMHWVKQSHEKRLEWIGGIDPSNGDTSYNQKFKGKATLTVDKSSSSAYMDLRSLTSVDSAIYYCARLEGVLPLDYWGHGTTLTVSS
VL: B1 VL
B4: MAb 5H8 (antibody, V domains shown)
VH: GLTGEPGTSVKMSCRTSGYTFTEYTMHWVKQSHEKRLEWIGGIDPSNGDTSYNQKFKGKATLTVDKSSSSAYMDLRSLTSVDSAIYYCARLEGVLPLDYWGHGTTLTVSS
VL: DIVMTQSQKFMSTSVRDRVAVTCKASQNVGTNVAWYQQKPGQSPKALIYSASYRYSGVPDRFTGSGSGTDFTLTISNVQSEDLAEYFCQQYNSYPYTFGGGTKLEVK
notes: also called 5H8.9
B5: MAb 3H11 (antibody, V domains shown)
VH: SLDLTGEPGASVKMSCRTSGYTFTEYTMHWVKQSHEKSLEWIGGIDPDNGDTSFNQKFKGKATLTVDKSSSTAYMELRSLTYDDTAIYLCARLEGVLPLDYWGQGTTLTVSS
VL: B4 VL
notes: also called 3H11.47
B6: MAb 7D4 (antibody, V domains shown)
VH: EVQLQESGPELVKPGTSVWISCKTSGFTFTKYTMHWVKQSHGKTLEWIGGIDPNNGDTSYNQKFKDKATLTVDKSSSTAYMELRSLTSEDSAVFFCVRLEGSLPLDYWGQGTTLTVSS
VL: DVGMTQTPLSLPVSLGDQASISCGSSQSLLHSNGKTYLHWYLQKPGQSPKLLIYKVSNRFSGVPDRFSGSGSGTYFTLKITRVEAEDLGVYFCSQTTHVPFTFGSGTKLEIK
B7: MAb 1B8 (antibody, V domains shown)
VH: B6 VH
VL: DVVMTQTPLSLPVSLGDQASISCRSSQSLVHSNGNTYLHWYLQKPGQSPKLLIYKVSSRFSGVPDRFSGSGSGTDFTLKISRVEAEDLGVYFCSQSTHVPYTFGGGTKLEIKR

Assays:
[1] = biological target: T1, GST-tagged IsdA; test: cell-based or functional assay
[2] = biological target: GST-tagged IsdBC (Staphylococcus aureus Newman, UniProt A5IS15 328-645); test: cell-based or functional assay
[3] = biological target: T2, Poly-histidine tagged IsdB (Staphylococcus aureus, UniProt A5IS15 41-613); test: ELISA, coated poly-His IsdB
T2 construct: also called IsdBFL; recombinant IsdB
Procedure: Proteins were used to coat Nunc MaxiSorp 96-well plates at a concentration of 1 μg ml⁻¹ PBS. Plates were washed and incubated with PBS-Tween and variable concentrations of MAbs.

| Binder | Δheme binding: percent change in Δ peak absorbance at 405 nm and 368 nm [1] [%] | Δheme binding: percent change in Δ peak absorbance at 405 nm and 368 nm [2] [%] | binding result [3] |
| --- | --- | --- | --- |
| B1 | 34 | 29.4 | – |
| B2 | 35 | 29 | – |
| B3 | 34.4 | 29 | – |
| B4 | 0.5 | – | no binding |
| B5 | 0.5 | – | no binding |
| B6 | -0.6 | – | – |
| B7 | 0.5 | – | – |
